Patent publication US11360100B2, “Methods and compositions useful in detecting proteins” (OREGON HEALTH & SCIENCE UNIVERSITY, priority 2016, dated 2022)
“Also recorded” adds a separate entry of the source. rhodamine = not defined here; BODIPY = not defined here

Columns and labels:
[1] = tested on: untagged mCherry and DHFR; assay: SDS-PAGE/PVDF membrane labeling, untagged proteins; type: binding; settings: lysates and purified proteins, PVDF membrane
Method: Crude lysates (lys.) and purified proteins (serial dilutions) were resolved by SDS-PAGE. Lysates were prepared from HERK 293FT cells transfected with mCherry, CoilY-mCherry, DHFR, and CoilE-DHFR. The protein gel was transferred to a PVDF membrane and then incubated with CoilZ-Fluorescein and CoilR-rhodamine. After washing, the membrane was imaged to detect VIPER labeling of DHFR (red) and VIP Y/Z labeling of mCherry (green). Untagged proteins were not labeled by either CoilR-rhodamine or CoilZ-fluorescein.
(§1) A protein gel-based assay was optimized for analyzing VIP tags in vitro. Cell lysates were made from cells transfected with mCherry, CoilY-mCherry, GFP, or CoilZ-GFP, resolved by SDS-PAGE, and transferred to a membrane. GFP and mCherry fluorescence were not preserved in this experiment. The membrane was then contacted with CoilZ-fluorescein and CoilY-rhodamine before imaging. […] The probe peptides were specific for each tagged protein, and this single pair enabled specific and selective protein tagging of two distinct targets. In addition both the VIP E/R and VIP Y/Z tag sets could be used concurrently to label two recombinant proteins (DHFR and mCherry) without crosstalk (FIG. 23).

[2] = biological target: T1, untagged TfR1 (Homo sapiens, UniProt P02786); assay: CoilR probe labeling of CHO TRVb cells expressing untagged TfR1; type: cell-based; settings: labeled at 4° C.
T1 construct: expressed in transfected cells; host or cells: CHO TRVb

[3] = biological target: coiled-coil heterodimer pairs; settings: heterodimer pair, Table 2; cited from earlier work
[4] = tested on: TfR1-MiniE; assay: miniVIPER versus VIPER labeling of TfR1 in CHO TRVb cells; type: cell-based; settings: Tf-AF488 and full length CoilR-Cy5
Method: FIG. 24 A and B are fluorescent micrographs comparing VIP E/R labeling with miniVIPER (MiniE and MiniR) labeling of TfR1. […] After labeling cells were imaged over time during a 30 min incubation at 37° C. Cells were imaged as confocal slices at 63× magnification. Transferrin-AF488 was false-colored green, CoilR-Cy5 was false-colored magenta, and nuclei were stained with Hoechst and false-colored blue. Individual channels are shown in FIG. 24B (blue, green, magenta) for the 5 minute timepoint. A Pearson's correlation analysis was used to compare fluorescence co-localization of CoilR-Cy5 with Transferrin-AF488. The p values are reported on the image and indicate that TfR1-miniE had better co-localization between Tf and CoilR labeling.
VIP E/R was edited by removing a heptad repeat, and changing key residues in the sequence to maximize affinity, improve dimer interface and create a smaller tag pair with more favorable charge balance for imaging in cells. MiniE (SEQ ID NO:10) and MiniR (SEQ ID NO:9) were created. TfR1 was tagged at the C-terminus with MiniE.

[5] = tested on: CoilZ-EGFP; assay: SDS-PAGE/PVDF membrane labeling of transfected HEK293FT lysates, CoilZ-EGFP; type: binding; settings: cell lysates, SDS-PAGE, PVDF membrane
Method: The CoilY and CoilZ pair could be used to label two protein targets simultaneously. Transfected HEK293FT cell lysates from cells expressing mCherry, CoilY-mCherry, EGFP, or CoilZ-EGFP were resolved by SDS-PAGE and transferred to a PVDF membrane. The membrane was incubated sequentially with CoilZ-fluorescein and CoilY-rhodamine before imaging. GFP and mCherry fluorescence was not preserved due to SDS-PAGE protein denaturation.
as §1

[6] = tested on: untagged GFP/EGFP and mCherry; assay: Fluorescence microscopy, cells expressing untagged fluorescent proteins; type: cell-based, human
Method: (§2) Fluorescence microscopy was used to confirm that the VIP Y/Z tag set enabled selective fluorescent labeling of proteins (FIGS. 3A and 3B). CoilZ was expressed by fusion to a cell-surface localized variant of GFP (CoilZ-GFP; pDisplay vector). […] Labeling was rapid (<30 min), target-specific, and live-cell compatible. Homodimerization between a CoilZ probe peptide and CoilZ-GFP was not observed. Cells expressing untagged GFP were not labeled with the CoilY probe peptide. CoilY was also expressed fused to the cell surface localized GFP and visualized using a CoilZ-AF647 probe peptide (FIG. 3B). No homodimerization of CoilY was observed, and the labeling was specific.
(§3) It was next confirmed that the VIP Y/Z tag set could be used in two-target imaging in fixed cells (FIGS. 5B and 13). A combination of cell lines singly-transfected with mCherry, GFP, CoilY-mCherry, or CoilZ-GFP was used, as illustrated in FIG. 9. […] Then we labeled two tagged FPs in one sample using a mixed population of cells expressing either CoilY-mCherry or CoilZ-GFP.
(§4) The disclosed methods were tested in transfected human osteosarcoma cells (U-2 OS). A pDisplay vector was used to target CoilZ-EGFP and untagged EGFP to the cell surface. This construct includes a C-terminal fusion to the transmembrane domain of the platelet derived growth factor receptor. As expected, both CoilZ-EGFP and untagged EGFP localized to the cell surface, and green fluorescence was observed within 24 h of transfection. Then the cells were blocked with 6% BSA and 10% FBS for 30 minutes at 37° C. and then contacted with an AF647-conjugated CoilY probe (CoilY-AF647), 30 min at 4° C. Cells were fixed before imaging by confocal fluorescence microscopy. The probe peptides are membrane impermeant; only cell-surface EGFP was accessible to CoilY-AF647 for labeling. Colocalization of green fluorescent CoilZ-EGFP with CoilY-AF647 was observed.
The CoilY/CoilZ tag set is bidirectional—either CoilZ or CoilY can serve as the probe peptide. CoilY-EGFP was expressed on the surface of U2OS cells and labeled with CoilZ-AF647. […]

[7] = tested on: CoilY-EGFP; assay: Fluorescence microscopy labeling of cell-surface CoilY-GFP (CoilY-EGFP); type: cell-based, human
Method: as §2
The CoilY/CoilZ tag set is bidirectional—either CoilZ or CoilY can serve as the probe peptide. CoilY-EGFP was expressed on the surface of U2OS cells and labeled with CoilZ-AF647. Protein labeling was rapid (<30 min) and specific; non-specific labeling of untagged EGFP was not observed. Homodimerization was not observed for either CoilZ-AF647 with CoilZ-EGFP or CoilY-AF647 with CoilY-EGFP (FIG. 3B).
(§5) The CoilY/CoilZ tag set is also compatible with live-cell imaging. CoilZ-EGFP was contacted with CoilY-AF647 in live U2OS cells. […] Homodimerization was not observed for CoilY-EGFP incubated with CoilY-AF647. Non-specific labeling of untagged GFP was not observed (FIG. 26). Cells internalize labeled targets over time. CoilZ-GFP and CoilY-AF647 co-localization was observed on the surface and in endocytic vesicles due to rapid internalization, and AF647 signal accumulated inside cells during a 40 min. long incubation at room temperature (FIG. 12).

[8] = tested on: CoilZ-EGFP; assay: Fluorescence microscopy labeling of cell-surface CoilZ-GFP (CoilZ-EGFP); type: cell-based, human; settings: fluorescence microscopy
Method: as §2, §3, §4, §5
The VIPY/Z tag set can be used to label multiple protein targets simultaneously. Cells expressing CoilY-mCherry were combined with those expressing CoilZ-EGFP-pDisplay (FIG. 9). This mixed cell population, as well as unmixed CoilZ-GFP, CoilY-mCherry, and untagged controls, were plated for imaging. […] Fluorescence was detected by confocal fluorescence imaging. […]

[9] = tested on: untagged EGFP-TM; assay: Flow cytometry of probe labeling, live U-2 OS cells expressing untagged EGFP-TM; type: cell-based, human; settings: 500 nM probe
Method: The in vitro results were translated to living cells. Flow cytometry was used to evaluate protein labeling in live human osteosarcoma (U-2 OS) cells expressing CoilZ-EGFP-TM, CoilY-EGFP-TM, or untagged EGFP-TM (FIG. 11). Cells were treated with 500 nM AF647-conjugated probe peptide before analysis, and we gated for EGFP-expressing cells. […] Non-specific labeling of untagged EGFP-TM and homodimerization with CoilY-EGFP-TM were minimal for cells exposed to CoilY-AF647. Cells expressing CoilY-EGFP-TM were labeled with CoilZ-AF647, but with only a 4-fold enhancement.
Protein labeling was assessed as a function of CoilY-AF647 concentration (FIG. 25). Live cells expressing CoilZ-EGFP-TM or untagged EGFP-TM were treated with a range of CoilY-AF647 concentrations (50 nM to 1000 nM for 30 min at room temperature). […] Cells had 21- to 44-fold higher median fluorescence compared to cells expressing untagged protein. Treatment with 300 nM AF647-CoilY gave optimal labeling, with 98% of cells labeled and a 35-fold increase in AF647 fluorescence. Treatment with an excess of probe peptide (i.e., 1000 nM) enhanced the AF647 signal, but at the cost of a small increase in non-specific labeling.

T1 sequence (P02786 whole entry): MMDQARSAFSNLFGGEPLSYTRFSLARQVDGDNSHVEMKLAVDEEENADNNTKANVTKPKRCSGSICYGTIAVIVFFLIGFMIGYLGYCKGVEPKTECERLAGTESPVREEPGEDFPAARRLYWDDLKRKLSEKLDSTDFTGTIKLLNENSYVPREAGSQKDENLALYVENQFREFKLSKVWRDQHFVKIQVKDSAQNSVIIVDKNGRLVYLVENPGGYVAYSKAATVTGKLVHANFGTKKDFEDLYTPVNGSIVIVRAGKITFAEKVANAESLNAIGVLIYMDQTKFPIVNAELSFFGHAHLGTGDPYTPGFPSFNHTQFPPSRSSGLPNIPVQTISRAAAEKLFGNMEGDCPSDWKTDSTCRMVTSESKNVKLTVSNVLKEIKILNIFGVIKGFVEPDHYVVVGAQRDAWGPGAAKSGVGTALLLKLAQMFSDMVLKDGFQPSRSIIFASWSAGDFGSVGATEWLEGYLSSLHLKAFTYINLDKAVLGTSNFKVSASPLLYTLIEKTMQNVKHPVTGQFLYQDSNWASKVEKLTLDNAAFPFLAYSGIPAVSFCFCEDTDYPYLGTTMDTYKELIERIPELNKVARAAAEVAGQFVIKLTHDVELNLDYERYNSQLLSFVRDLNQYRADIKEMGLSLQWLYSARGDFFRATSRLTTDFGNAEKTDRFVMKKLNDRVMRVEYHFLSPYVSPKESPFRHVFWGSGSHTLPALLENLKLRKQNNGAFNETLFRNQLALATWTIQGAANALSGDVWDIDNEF

B1: CoilR-rhodamine: CoilR probe peptide conjugated to rhodamine (conjugate)
peptide: MGGSLEIRAAFLRQRNTALRTEVAELEQEVQRLENEVSQYETRYGPLGGGAAALGC(rhodamine)LAAALEHHHHHH
modifications: reading uncertain
labeling of untagged proteins on membrane [1]: not labeled

B2: CoilR-BODIPY: CoilR probe peptide conjugated to BODIPY (conjugate)
peptide: MGGSLEIRAAFLRQRNTALRTEVAELEQEVQRLENEVSQYETRYGPLGGGAAALGC(BODIPY)LAAALEHHHHHH
modifications: reading uncertain
labeling of cells expressing untagged TfR1 [2]: showed now labeling

B3: VIP 3/4: heterodimeric tag pair of Coil3 and Coil4 (peptide)
chain 1: NEVTTLENDAAFIENENAYLEKEIARLRKEKAALRNRLAHKK
chain 2: QKVAELKNRVAVKLNRNEQLKNKVEELKNRNAYLKNELATLENEVARLENDVAE
Kd [3]: < 0.03 µM

B4: miniVIPER: shorter, better charge balanced VIP E/R pair of MiniE and MiniR (peptide)
chain 1: LEIRVAFLRQRNTALRTEVAELEQEVQRLENRYGPL
chain 2: LEIEAAFLERENTALETRVAELRQRVQRLRNEYGPL
Tf-AF488 signal compared to VIPER [4]: brighter Tf-A488 signal
colocalization between Tf-AF488 and CoilR-Cy5 compared to VIPER [4]: improved colocalization

B5: VIP 1/2: heterodimeric tag pair of Coil1 and Coil2 (peptide)
chain 1: NLVAQLENEVASLENENETLKKKNLHKKDLIAYLEKEIANLRKKIEE
chain 2: ARNAYLRKKIARLKKDNLQLERDEQNLEKIIANLRDEIARLENEVASHEQ
Kd [3]: < 0.01 µM

B6: CoilY-rhodamine: red fluorescent CoilY probe peptide, maleimide conjugate (conjugate)
peptide: MGSSNTVKELKNYIQELEERNAELKNLKEHLKFAKAELEFELAAHKFEGGGAAAC(rhodamine)LGKLAAALEHHHHHH
modifications: reading uncertain
notes: red fluorescent CoilY probe peptide, maleimide conjugate
probe peptide binding to CoilZ-EGFP on membrane [5]: specific coiled-coil heterodimer formation could be detected; also recorded: Probe peptide binding was detected

B7: CoilY probe peptide: CoilY with linker, reactive cysteine and His6 tag, SEQ ID NO: 13 (peptide)
chain: MGSSNTVKELKNYIQELEERNAELKNLKEHLKFAKAELEFELAAHKFEGGGAAACLGKLAAALEHHHHHH
non-specific labeling of untagged fluorescent proteins [6]: not labeled

B8: CoilZ-AF647: CoilZ probe peptide conjugated to AF647 (conjugate)
peptide: MGSSQKVAQLKNRVAYKLKENAKLENIVARLENDNANLEKDIANLEKDIANLERDVARGGGAAACLGKLAAALEHHHHHH
labeling time (rapid) ([7]; CoilY-EGFP on surface of U2OS cells): < 30 min
labeling of CoilY-GFP/EGFP (specificity) ([7]; fluorescence microscopy): specific
non-specific labeling of untagged fluorescent proteins [6]: not observed
homodimerization / cross-reactivity of CoilZ probe with CoilZ-GFP/EGFP [8]: not observed
non-specific labeling of untagged EGFP-TM [9]: slightly higher

B9: CoilZ probe peptide: CoilZ with linker, reactive cysteine and His6 tag, SEQ ID NO: 14 (peptide)
chain: B8 peptide
homodimerization / cross-reactivity of CoilZ probe with CoilZ-GFP/EGFP [8]: not observed
